Experimental findings from paper PMC12283967 (Nature Communications, 2025) are described below.

Like-named read-outs stand apart in the source and are kept apart here.

Series [1] deals with the molecule itself. The experiment in a line: SEC. (In general: Size exclusion chromatography separates by hydrodynamic size, large species first.)
Series [2] concerns the molecule itself. The experiment in a line: SEC. The source holds these as a separate data set.

B1: Sumo-His-tagged PFKM WT (enzyme, human, UniProt P08237 1-780, looked up)
chain: MTHEEHHAAKTLGIGKAIAVLTSGGDAQGMNAAVRAVVRVGIFTGARVFFVHEGYQGLVDGGDHIKEATWESVSMMLQLGGTVIGSARCKDFREREGRLRAAYNLVKRGITNLCVIGGDGSLTGADTFRSEWSDLLSDLQKAGKITDEEATKSSYLNIVGLVGSIDNDFCGTDMTIGTDSALHRIMEIVDAITTTAQSHQRTFVLEVMGRHCGYLALVTSLSCGADWVFIPECPPDDDWEEHLCRRLSETRTRGSRLNIIIVAEGAIDKNGKPITSEDIKNLVVKRLGYDTRVTVLGHVQRGGTPSAFDRILGSRMGVEAVMALLEGTPDTPACVVSLSGNQAVRLPLMECVQVTKDVTKAMDEKKFDEALKLRGRSFMNNWEVYKLLAHVRPPVSKSGSHTVAVMNVGAPAAGMNAAVRSTVRIGLIQGNRVLVVHDGFEGLAKGQIEEAGWSYVGGWTGQGGSKLGTKRTLPKKSFEQISANITKFNIQGLVIIGGFEAYTGGLELMEGRKQFDELCIPFVVIPATVSNNVPGSDFSVGADTALNTICTTCDRIKQSAAGTKRRVFIIETMGGYCGYLATMAGLAAGADAAYIFEEPFTIRDLQANVEHLVQKMKTTVKRGLVLRNEKCNENYTTDFIFNLYSEEGKGIFDSRKNVLGHMQQGGSPTPFDRNFATKMGAKAMNWMSGKIKESYRNGRIFANTPDSGCVLGMRKRALVFQPVAELKDQTDFEHRIPKEQWWLKLRPILKILAKYEIDLDTSDHAHLEHITRKRSGEAAV
As usually defined, the stoichiometry N is a count of units in the complex or per binding partner. Take B1: the “stoichiometry N” value amounted to 2 in “SEC [1]” and 4 in the series “SEC [2]”.

B2: Sumo-His-tagged PFKM F639L (enzyme, human, UniProt P08237 1-780, looked up)
chain: MTHEEHHAAKTLGIGKAIAVLTSGGDAQGMNAAVRAVVRVGIFTGARVFFVHEGYQGLVDGGDHIKEATWESVSMMLQLGGTVIGSARCKDFREREGRLRAAYNLVKRGITNLCVIGGDGSLTGADTFRSEWSDLLSDLQKAGKITDEEATKSSYLNIVGLVGSIDNDFCGTDMTIGTDSALHRIMEIVDAITTTAQSHQRTFVLEVMGRHCGYLALVTSLSCGADWVFIPECPPDDDWEEHLCRRLSETRTRGSRLNIIIVAEGAIDKNGKPITSEDIKNLVVKRLGYDTRVTVLGHVQRGGTPSAFDRILGSRMGVEAVMALLEGTPDTPACVVSLSGNQAVRLPLMECVQVTKDVTKAMDEKKFDEALKLRGRSFMNNWEVYKLLAHVRPPVSKSGSHTVAVMNVGAPAAGMNAAVRSTVRIGLIQGNRVLVVHDGFEGLAKGQIEEAGWSYVGGWTGQGGSKLGTKRTLPKKSFEQISANITKFNIQGLVIIGGFEAYTGGLELMEGRKQFDELCIPFVVIPATVSNNVPGSDFSVGADTALNTICTTCDRIKQSAAGTKRRVFIIETMGGYCGYLATMAGLAAGADAAYIFEEPFTIRDLQANVEHLVQKMKTTVKRGLVLRNEKCNENYTTDLIFNLYSEEGKGIFDSRKNVLGHMQQGGSPTPFDRNFATKMGAKAMNWMSGKIKESYRNGRIFANTPDSGCVLGMRKRALVFQPVAELKDQTDFEHRIPKEQWWLKLRPILKILAKYEIDLDTSDHAHLEHITRKRSGEAAV
Turning to B2, the “stoichiometry N” value in “SEC [2]” is 2.
